Source: US20260061042A1, “POLYNUCLEOTIDE COMPOSITIONS AND USES THEREOF” (Pfizer Inc., priority 2024, published 2026)

System: E. coli strain CFT073 expressing the fimbrial adhesin PapG
Assay: PapG hemagglutination inhibition (HAI) assay on sera of mice immunized with PapG modRNA LNPs
Assay type: in vivo
Settings: 50 μl IM; for Step Titer GMT (HAI): weeks 0, 4, bleed week 6, GMT of individual titers; for Step Titer Pool (HAI): weeks 0, 4, bleed week 6, serum pool
Source text: Escherichia coli to the uroepithelium of human kidney. The PapG lectin binds to the globoside (GbO4) glycolipid, which is enriched in urinary tract tissue and consists of the tetrasacharide GalNAcβ1-3Galα1-4Galβ1-4Glc linked to ceramide. Here we present the use of a hemagglutination inhibition assay (HAI) to determine vaccine functional responses to protein subunit PapG or mRNA-expressed PapG antigens. In this assay the agglutination of human red blood cells (hRBCs) expressing GbO4 is caused by live E. coli CFT073 bacteria expressing PapG. The HAI assay measures the ability of PapG-elicited antibodies to prevent hRBC agglutination, exemplifying inhibition of the key bacterial adherence mechanism leading to clinical pyelonephritis. The assay was used to characterize the functional activity of PapG monoclonal antibodies (mAbs) raised against a PapG lectin domain subunit antigen. PapG HAI data from a mouse immunogenicity study are described that evaluated various 5 monovalent PapG modRNA LNPs and a PapG subunit comparator.
In this mouse study immunogenicity of different PapG mRNA constructs were evaluated. […]
iii. PapG Hemagglutination Inhibition Assay (HAI) 1. Preparation of Single Use Frozen E. coli CFT073 Banks Frozen bacterial stocks for use in the PapG HAI are stored at a concentration of ˜15 OD/mL. For stock preparation, take 6 ×100 μL of frozen parental strain CFT073 glycerol stock to seed six overnight cultures with ˜85 mL Luria's Broth (LB) each in 250 mL vented flasks. Flasks are shaken at 200 rpm and 37° C. overnight. On the same day, prepare 100 mL LB media with 30% glycerol and 0.4% sucrose by mixing […] 80% Glycerol with 0.8 mL 50% Sucrose in 64 mL LB and pre-chill at 4° C. After ˜16 h growth, determine the OD600 nm of each flask with the SpectraMax M5e plate reader by adding 100 μL culture to 900 μL LB (1:10 dilution). After reading the OD600, harvest cells by pelleting in a centrifuge at 4,000g, 4° C., for 30 minute. Determine the total OD of each of the six flasks, by multiplying the volume by OD/mL of each flask and divide by 15 OD to give the appropriate pellet resuspension volume. Discard supernatants and resuspend all pellets in the pre-chilled LB cryopreservant containing 30% glycerol and 0.4% sucrose, with a final volume as calculated above. Pool all resuspended pellets and mix gently, then aliquot into 1 mL/cryotube, and freeze at −70° C.
2. Preparing 10% hRBC Working Solution From Stock
Gently mix human red blood cells (hRBC) bottle (Rockland) by rocking ˜20×times, pipet out 10 mL of the hRBCs into a 15 ml conical tube. Centrifuge at 2,000 rpm(˜990×g) for 10 minutes and 4° C. Aspirate and discard the supernatant, then resuspend the pellet with 9 mL 4° C. PBS. The packed hRBCs in 15 mL conical tube should constitute roughly 1 mL of this total volume. Store these 10% hRBCs at 4° C. until use. […]
iv. PapG Hemagglutination Inhibition (HAI) Assay
The PapG hemagglutination inhibition (HAI) assay uses human red blood cells (hRBCs), which naturally express the PapG ligand GbO4 (globotetraosyl ceramide) on the cell surface, and the E. coli strain CFT073 expressing the fimbrial adhesin PapG. Upon mixing bacteria with hRBCs, […] cells remain suspended (presenting as a cloudy well), while no binding results in the red blood cells falling out of solution towards the center of the well (observed as pellet).
The total final well volume is 100 μL, with serum dilutions comprising 25 μL of this volume, strain CFT073 cells in […] volume, and hRBCs in a 50 μL volume. The assay plate is a V-bottom plate to which 25 μL 4° C. PBS is initially added to all wells. The positive control wells receive an additional 25 μL 4° C. PBS. The no-serum negative control consists of E. coli CFT073 cells plus hRBCs only (resulting agglutinated well appears cloudy). To accommodate pre-diluted sera transferred from the serum Master Dilution plate (MDP) an extra 5 μL 4° C. PBS is added to wells in Row A of the assay plate (columns 1 to 12). […]

Row | Molecule | Step Titer GMT (HAI) (0.2 μg) | Step Titer Pool (HAI) (0.2 μg) | Step Titer GMT (HAI) (1 μg) | Step Titer Pool (HAI) (1 μg) | Step Titer GMT (HAI) (5 μg) | Step Titer Pool (HAI) (5 μg)
1 | BMD576_PapG-DSF K172A_DAF-GPI: monovalent PapG modRNA LNP; RNA construct SEQ ID NO: 64 (nucleic acid, modRNA in LNP) AGGAGGACUGGUCGAACCUGCAUAGUGAUCAUAAGGUCAGCAUAGCCACCAUGGAGACCGACACCCUCCUGCUGUGGGUGCUGUUACUGUGGGUGCCCGGUAGCACCGGCUGGAACAACAUCGUGUUCUACAGCCUGGGCAACGUGAACAGCUACCAAGGCGGCAACGUGGUGAUCACACAGAGACCUCAGUUCAUCACAAGCUGGAGACCCGGCAUCGCCACCGUGACCUGGAAUCAGUGCAACGGCCCCGAGUUCGCCGACGGCAGCUGGGCCUACUACAGAGAGUACAUCGCCUGGGUGGUGUUCCCCAAGAAGGUGAUGACCAAGAACGGCUACCCCCUGUUCAUCGAGGUGCACAACAAGGGCAGCUGGAGCGAGGAGAACACCGGCGACAGCGACAGCUACUUCUUCCUGAAGGGCUACAAGUGGGACGAGAGAGCCUUCGACGCCGGCAACCUGUGUCAGAAGCCGGGGGAGACGACCCGGCUUACAGAAAAGUUCAACGACAUCAUCUUCAAGGUGGCCCUGCCCGCCGACCUGCCCCUGGGCGACUACAGCGUGACCAUCCCCUACACAAGCGGCAUUCAGAGACACUUCGCUAGCUACCUGGGCGCUAGAUUCGCCAUCCCCUACAACGUGGCCAAGACCCUGCCUAGAGAGAACGAGAUGCUGUUCCUGUUCAAGAACAUCGGCGGCUGCAGACCUAGCGCUCAGAGCCUGGAGAUCAAGCACGGCGACCUGAGCAUCAACAGCGCCAACAACCACUACGCCGCUCAGACCCUGAGCGUGAGCUGCGACGUGCCCGCCAACAUCAGAUUCAUGCUGCUGAGAUCAACCACCCCCACCUACAGCCACGGCAAGAAGUUCAGCGUGGGCCUGGGCCACGGCUGGGACAGCAUCGUGAGCGUGAACGGCGUGGACACGGGCGAGACCACUAUGCGUUGGUACAAGGCCGGCACACAGAGCCUGACCAUCGGCAGCAGACUGUACGGCGAGAGCAGCAAGAUUCAACCGGGCGUGCUUAGUGGUUCCGCCACCCUGCUGAUGAUUCUGCCCGGCGGAAGCAGCGGCGGCGCCGACGUGCAGAUCAACAUCAGAGGCAACGUGUACAUACCCCCUUCGAGCGGAGGCGGCGGAUCGUCCGGCUCCGGGAGCAGCAGCGGCACCACACGGCUGCUGAGCGGCCACACCUGCUUCACCCUGACCGGCCUGCUGGGCACCCUGGUGACCAUGGGCCUGCUGACCUGAUGAGCUCGCUUUCUUGCUGUCCAAUUUCUAUUAAAGGUUCCUUUGUUCCCUAAGUCCAACUACUAAACUGGGGGAUAUUAUGAAGGGCCUUGAGCAUCUGGAUUCUGCCUAAUAAAAAACAUUUAUUUUCAUUGCAAAAAAAAAAAAAAAAAAAAAAAAAAAAAAAAAAAAAAAAAAAAAAAAAAAAAAAAAAAAAAAAAAAAAAAAAAAAAAAAAA | 50,054 | 54,000 | 69,595 | 27,000 | 141,214 | 81,000
2 | BMD562_PapG-DSF K172A_DAF-GPI: monovalent PapG modRNA LNP; RNA construct SEQ ID NO: 63 (nucleic acid, modRNA in LNP) AGGAAAUAAGAGAAAGAGGAUAAGACGACUAAGGAGACAUACAGAAUAAGAGGCAGCCACCAUGGAGACCGACACCCUCCUGCUGUGGGUGCUGUUACUGUGGGUGCCCGGUAGCACCGGCUGGAACAACAUCGUGUUCUACAGCCUGGGCAACGUGAACAGCUACCAAGGCGGCAACGUGGUGAUCACACAGAGACCUCAGUUCAUCACAAGCUGGAGACCCGGCAUCGCCACCGUGACCUGGAAUCAGUGCAACGGCCCCGAGUUCGCCGACGGCAGCUGGGCCUACUACAGAGAGUACAUCGCCUGGGUGGUGUUCCCCAAGAAGGUGAUGACCAAGAACGGCUACCCCCUGUUCAUCGAGGUGCACAACAAGGGCAGCUGGAGCGAGGAGAACACCGGCGACAGCGACAGCUACUUCUUCCUGAAGGGCUACAAGUGGGACGAGAGAGCCUUCGACGCCGGCAACCUGUGUCAGAAGCCGGGGGAGACGACCCGGCUUACAGAAAAGUUCAACGACAUCAUCUUCAAGGUGGCCCUGCCCGCCGACCUGCCCCUGGGCGACUACAGCGUGACCAUCCCCUACACAAGCGGCAUUCAGAGACACUUCGCUAGCUACCUGGGCGCUAGAUUCGCCAUCCCCUACAACGUGGCCAAGACCCUGCCUAGAGAGAACGAGAUGCUGUUCCUGUUCAAGAACAUCGGCGGCUGCAGACCUAGCGCUCAGAGCCUGGAGAUCAAGCACGGCGACCUGAGCAUCAACAGCGCCAACAACCACUACGCCGCUCAGACCCUGAGCGUGAGCUGCGACGUGCCCGCCAACAUCAGAUUCAUGCUGCUGAGAUCAACCACCCCCACCUACAGCCACGGCAAGAAGUUCAGCGUGGGCCUGGGCCACGGCUGGGACAGCAUCGUGAGCGUGAACGGCGUGGACACGGGCGAGACCACUAUGCGUUGGUACAAGGCCGGCACACAGAGCCUGACCAUCGGCAGCAGACUGUACGGCGAGAGCAGCAAGAUUCAACCGGGCGUGCUUAGUGGUUCCGCCACCCUGCUGAUGAUUCUGCCCGGCGGAAGCAGCGGCGGCGCCGACGUGCAGAUCAACAUCAGAGGCAACGUGUACAUACCCCCUUCGAGCGGAGGCGGCGGAUCGUCCGGCUCCGGGAGCAGCAGCGGCACCACACGGCUGCUGAGCGGCCACACCUGCUUCACCCUGACCGGCCUGCUGGGCACCCUGGUGACCAUGGGCCUGCUGACCUGAUGAGCUCGCUUUCUUGCUGUCCAAUUUCUAUUAAAGGUUCCUUUGUUCCCUAAGUCCAACUACUAAACUGGGGGAUAUUAUGAAGGGCCUUGAGCAUCUGGAUUCUGCCUAAUAAAAAACAUUUAUUUUCAUUGCAAAAAAAAAAAAAAAAAAAAAAAAAAAAAAAAAAAAAAAAAAAAAAAAAAAAAAAAAAAAAAAAAAAAAAAAAAAAAAAAAA | – | – | 65,875 | 81,000 | – | –
